# Tests used:
# [1] = biological target: the molecule itself; experiment: SDS-resistant dimer on SDS-PAGE with immunoblot; HEK293T cells expressing WT-protrudin exposed to UV light (365 nm) as control; SDS-PAGE and immunoblot with anti-Myc antibody
# [2] = biological target: the molecule itself; experiment: cross-linking; photo-crosslinking by DiZPK in living HEK293T cells, 48 h after transfection, UV 365 nm for 10 min; SDS-PAGE and immunoblot with anti-Myc antibody
Protein,stoichiometry N [1],stoichiometry N [2]
"wild-type protrudin with a C-terminal myc tag (natural protein, human, UniProt Q5T4F4-2 1-404, looked up, protrudin (ZFYVE27), human, from cDNA; also called WT-protrudin; protrudin-myc; source: HEK293T, transfected (pcDNA3.1-protrudin-myc), in lysate; not shown: c-Myc, C-terminal, kept) MQTSEREGSGPELSPSVMPEAPLESPPFPTKSPAFDLFNLVLSYKRLEIYLEPLKDAGDGVRYLLRWQMPLCSLLTCLGLNVLFLTLNEGAWYSVGALMISVPALLGYLQEVCRARLPDSELMRRKYHSVRQEDLQRGRLSRPEAVAEVKSFLIQLEAFLSRLCCTCEAAYRVLHWENPVVSSQFYGALLGTVCMLYLLPLCWVLTLLNSTLFLGNVEFFRVVSEYRASLQQRMNPKQEEHAFESPPPPDVGGKDGLMDSTPALTPTEDLTPGSVEEAEEAEPDEEFKDAIEEDDEGAPCPAEDELALQDNGFLSKNEVLRSKVSRLTERLRKRYPTNNFGNCTGCSATFSVLKKRRSCSNCGNSFCSRCCSFKVPKSSMGATAPEAQRETVFVCASCNQTLSK",2,
"protrudin with DiZPK incorporated at site D134, C-terminal myc tag (natural protein, human, UniProt Q5T4F4-2 1-404, looked up, DiZPK (3-(3-methyl-3H-diazirin-3-yl)-propamino-carbonyl-Nε-L-lysine) at position 134, protrudin (ZFYVE27), human; codon of D134 changed to the amber codon (TAG) and read as DiZPK, a lysine derivative; The new residue is written as K because DiZPK is an Nε-modified lysine; source: HEK293T, transfected with the MbPylRS/MbtRNACUA pair, cultured with DiZPK, in lysate; not shown: c-Myc, C-terminal, kept) MQTSEREGSGPELSPSVMPEAPLESPPFPTKSPAFDLFNLVLSYKRLEIYLEPLKDAGDGVRYLLRWQMPLCSLLTCLGLNVLFLTLNEGAWYSVGALMISVPALLGYLQEVCRARLPDSELMRRKYHSVRQEKLQRGRLSRPEAVAEVKSFLIQLEAFLSRLCCTCEAAYRVLHWENPVVSSQFYGALLGTVCMLYLLPLCWVLTLLNSTLFLGNVEFFRVVSEYRASLQQRMNPKQEEHAFESPPPPDVGGKDGLMDSTPALTPTEDLTPGSVEEAEEAEPDEEFKDAIEEDDEGAPCPAEDELALQDNGFLSKNEVLRSKVSRLTERLRKRYPTNNFGNCTGCSATFSVLKKRRSCSNCGNSFCSRCCSFKVPKSSMGATAPEAQRETVFVCASCNQTLSK",,2

# From paper PMC5399442, “Fatty acid synthase cooperates with protrudin to facilitate membrane outgrowth of cellular protrusions” (Scientific Reports, 2017)
